Test results reported in patent publication US12139520B2 (priority 2020, dated 2024).
Numbered stars: 1 amine (or outer) side, 2 acyl side, 3 side chain; on linkers, the order of the positions; unused ones are H or OH. Bridge positions count the residues as written; N and C are the ends. Square brackets hold non-standard residues; d marks the D form. Ends that are not written are not given here. * marks the point of attachment. C20 diacid = O=C(O)CCCCCCCCCCCCCCCCCCC(=O)*; γGlu = O=C(O)[C@H](CCC(=O)[*:2])N[*:1]; Hyp = O=C(O)[C@@H]1C[C@@H](O)CN1; Cit = NC(=O)NCCC[C@H](N)C(=O)O

T1: hAMY3R (human, UniProt P30988)
T1 sequence 1: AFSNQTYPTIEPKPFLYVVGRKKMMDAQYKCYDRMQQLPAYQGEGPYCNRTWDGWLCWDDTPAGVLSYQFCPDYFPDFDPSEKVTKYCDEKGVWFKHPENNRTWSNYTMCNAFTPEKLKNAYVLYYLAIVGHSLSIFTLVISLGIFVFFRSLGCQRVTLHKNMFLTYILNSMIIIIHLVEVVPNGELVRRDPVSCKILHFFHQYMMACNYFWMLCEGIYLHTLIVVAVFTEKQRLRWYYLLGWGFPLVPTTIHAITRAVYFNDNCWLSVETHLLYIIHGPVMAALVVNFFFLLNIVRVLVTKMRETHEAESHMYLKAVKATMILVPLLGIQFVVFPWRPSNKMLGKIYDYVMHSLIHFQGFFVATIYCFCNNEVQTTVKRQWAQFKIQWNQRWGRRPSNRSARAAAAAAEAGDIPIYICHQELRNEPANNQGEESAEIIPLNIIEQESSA
T1 sequence 2: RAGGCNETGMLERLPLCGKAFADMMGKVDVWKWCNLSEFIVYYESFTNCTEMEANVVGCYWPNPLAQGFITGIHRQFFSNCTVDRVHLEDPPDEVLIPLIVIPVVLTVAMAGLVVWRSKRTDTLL

B1: SEQ ID NO: 233 (peptide)
peptide: KCNTATCTVQRLAEQIYQFTDKDKDNVAPPTNVGSNG[Hyp]-NH2
modifications: disulfide 2-7 (inferred); not fully specified (N-terminus); ends not checked; also: N-terminal Lys carries two C20DA-OEG-γGlu-OEG arms ((...)2-K)

Legend:
hAMY3R = target: T1, hAMY3R; test: cell-based or functional assay
hAM1R = hAM1R (human, UniProt Q16602); test: cell-based or functional assay

Binder	hAMY3R EC50 (cAMP) (hAMY3R)	hAM1R EC50 (cAMP) (hAM1R)
GCRTGTCTVQRLAHQIYQFTNKDKDNVAPRSKISPQF[Hyp]-NH2 (disulfide 2-7 (inferred); ends not checked) [SEQ ID NO: 238]	0.235 nM	> 5000 nM
GCRTGTCTVQRLAHQIYQFTDKFKDNVAPRSKISPQM[Hyp]-NH2 (disulfide 2-7 (inferred); ends not checked) [SEQ ID NO: 236]	0.234 nM	2240 nM
RCQTSTCTVA[Cit]LAEQIAQYTDKDKDQVAPPTNVGSNS[Hyp]-NH2 (disulfide 2-7 (inferred); ends not checked) [SEQ ID NO: 256]	0.007 nM	> 5000 nM
KCNFATCTVQRLAHQIYQFTDKDKDNVAPRTKVGSNG[Hyp]-NH2 (disulfide 2-7 (inferred); ends not checked) [SEQ ID NO: 3]	0.006 nM	124 nM
KCNTSTCTVA[Cit]LADQITQFSDKDKANVSPPTEVGPNS[Hyp]-NH2 (disulfide 2-7 (inferred); ends not checked) [SEQ ID NO: 247]	0.004 nM	> 5000 nM
KCNTATCTVQRLAHQIYQFTDKDKANVAPPTNVGSNG[Hyp]-NH2 (disulfide 2-7 (inferred); ends not checked) [SEQ ID NO: 26]	0.008 nM	> 5000 nM
KCNTATCTVQRLAHQIYQFTDKDADNVAPPTNVGSNG[Hyp]-NH2 (disulfide 2-7 (inferred); ends not checked) [SEQ ID NO: 25]	0.008 nM	> 5000 nM
GCRFGTCTVQRLAHQIYQFTDKDKDNVAPRSNIGPQG[Hyp]-NH2 (disulfide 2-7 (inferred); ends not checked) [SEQ ID NO: 229]	0.207 nM	2980 nM
KCNTATCTVQ[Cit]LAHQIYQFTDKDKDNVAPRTKVGSNG[Hyp]-NH2 (disulfide 2-7 (inferred); ends not checked) [SEQ ID NO: 248]	0.027 nM	3590 nM
RCNASTCTVN[Cit]LADQITQFSNKDKAQVSPPTEVGPNS[Hyp]-NH2 (disulfide 2-7 (inferred); ends not checked) [SEQ ID NO: 245]	0.017 nM	> 5000 nM
GCRFGTCTVQRLAHQIYQFTDKDKDNVAPSSKISPQT[Hyp]-NH2 (disulfide 2-7 (inferred); ends not checked) [SEQ ID NO: 240]	0.24 nM	> 5000 nM
KCNTATCTVQ[Cit]LAHQIYQFTKDKDNVAPPTNVGSNG[Hyp]-NH2 (disulfide 2-7 (inferred); ends not checked) [SEQ ID NO: 253]	0.004 nM	> 5000 nM
KCNTATCTVQ[Cit]LAHQIYQFTDKAKDNVAPPTNVGSNG[Hyp]-NH2 (disulfide 2-7 (inferred); ends not checked) [SEQ ID NO: 258]	0.01 nM	> 5000 nM
KCNTATCTVQ[Cit]LAHQIYQFTDKDADNVAPPTNVGSNG[Hyp]-NH2 (disulfide 2-7 (inferred); ends not checked) [SEQ ID NO: 250]	0.011 nM	> 5000 nM
KCNTATCTVQRLAHQIYQFTAKDKDNVAPPTNVGSNG[Hyp]-NH2 (disulfide 2-7 (inferred); ends not checked) [SEQ ID NO: 24]	0.008 nM	> 5000 nM
B1	0.22 nM	> 5000 nM
KCNTATCTVQ[Cit]LAHQIAQFTDKDKDNVAPPTNVGSNG[Hyp]-NH2 (disulfide 2-7 (inferred); ends not checked) [SEQ ID NO: 246]	0.01 nM	> 5000 nM

Binder	hAMY3R EC50 (cAMP) (hAMY3R)	hAM1R EC50 (cAMP) (hAM1R)
KCNTSTCTVA[Cit]LADQITQFSNKDKAQVSPPTEVGPNS[Hyp]-NH2 (disulfide 2-7 (inferred); ends not checked) [SEQ ID NO: 244]	0.006 nM	> 5000 nM
KCNTATCTVQ[Cit]LAHQIYQFTDKDKDNVAPRTKVGSNGY-NH2 (disulfide 2-7 (inferred); ends not checked) [SEQ ID NO: 257]	0.016 nM	2040 nM
{C20 diacid-γGlu}-KCNTYTCTVQRLAHQIYQFTDKDKDNVAPPTNVGSNG[Hyp]-NH2 (disulfide 2-7 (inferred); ends not checked) [SEQ ID NO: 231]	0.209 nM	> 5000 nM
KCNTATCTVQ[Cit]LAHQIYQFTDKDKDNVAPTNVGSNG[Hyp]-NH2 (disulfide 2-7 (inferred); ends not checked) [SEQ ID NO: 255]	0.007 nM	> 5000 nM
KCNTATCTVQ[Cit]LAHQIYQFTDKDKDNVPPTNVGSNG[Hyp]-NH2 (disulfide 2-7 (inferred); ends not checked) [SEQ ID NO: 254]	0.006 nM	> 5000 nM
GCRTGTCTVQRLAHQIYQFTDKFKDNVAPRSKISPQTY [SEQ ID NO: 230]	0.208 nM	> 5000 nM
GCRTGTCTVQRLAHQIYQFTNKDKDNVAPRSKISPQTM [SEQ ID NO: 237]	0.235 nM	4250 nM
GCRTGTCTVQRLAHQIYQFTDKFKDNVAPRSKISPQTF [SEQ ID NO: 239]	0.236 nM	> 5000 nM
GCRTGTCTVQRLAHQIYQFTDKFKDNVAPRSKISPQTA [SEQ ID NO: 241]	0.242 nM	2290 nM
GCRTGTCTVQRLAHQIYQFTDKFKDNVAPRSKISPQTP [SEQ ID NO: 235]	0.233 nM	1420 nM
GCRTGTCTVQRLAHQIYQFTNKDKDNVAPRSKISPQTR [SEQ ID NO: 242]	0.248 nM	> 5000 nM
GCRTGTCTVQRLAHQIYQFTNKDKDNVAPRSKISPQQ[Hyp]-NH2 (disulfide 2-7 (inferred); ends not checked) [SEQ ID NO: 232]	0.213 nM	> 5000 nM
KCNTATCTVQ[Cit]LAHQIYQFADKDKDNVAPPTNVGSNG[Hyp]-NH2 (disulfide 2-7 (inferred); ends not checked) [SEQ ID NO: 249]	0.006 nM	> 5000 nM
KCNTATCTVQ[Cit]LAHQIYQFTDKDKDNAAPPTNVGSNG[Hyp]-NH2 (disulfide 2-7 (inferred); ends not checked) [SEQ ID NO: 251]	0.006 nM	> 5000 nM
KCNTATCTVQ[Cit]LAHQIYQFTDKDKDNVAPATNVGSNG[Hyp]-NH2 (disulfide 2-7 (inferred); ends not checked) [SEQ ID NO: 252]	0.006 nM	> 5000 nM
KCNTATCTVQ[Cit]LAAQIYQFTDKDKDNVAPPTNVGSNG[Hyp]-NH2 (disulfide 2-7 (inferred); ends not checked) [SEQ ID NO: 243]	0.018 nM	3340 nM
KCNTATCATQRLANFLVQFTDKDKDNVAPRSKISPQGY [SEQ ID NO: 234]	0.227 nM	> 5000 nM
